Test results reported in patent US12391919B2, “Culture medium, coating matrix and method for maturing midbrain dopaminergic progenitor cells” (NUWACELL BIOTECHNOLOGIES CO., LTD., priority 2022, dated 2025).

Tested on: imDAPs
Assay: imDAP maturation: cell morphology, adhesion and cell yield
Type: cell-based, human
Conditions: Example 13; maturation media supplemented with 10 μM Y27632; day 7; FIG. 8A
Procedure: imDAPs were produced according to the method described in CN201910169525.0, and expanded as described in Example 10. […] MM-H used in Example 11 contained the following components: Neurobasal™ medium, 1% (v/v) Glutamax, 0.5 mM Db-cAMP sodium salt, 200 μM ascorbic acid, 20 ng/ml BDNF, 20 ng/ml GDNF, 1 ng/ml TGF-β3, 10 μM DAPT, HhPLT (0.5%, 1%, 2%). MM-B used in Example 11 contained the following components: Neurobasal, 1% (v/v) Glutamax, 0.5 mM Db-cAMP sodium salt, 200 μM ascorbic acid, 20 ng/ml BDNF, 20 ng/ml GDNF, 1 ng/ml TGF-β3, 10 μM DAPT, 2% (v/v) B27 (50×) (as control). The above HhPLT was produced from hPLT as follows. The hPLT was centrifuged at 3000 g for 30 min at 4° C. to obtain the supernatant, which was heated to 56° C. for 30 min. The suspension was finally cooled down to 4° C. at least 5 min, and spun at 3000 g for 30 min at 4° C. to obtain the HhPLT supernatant. Aliquots were prepared and stored at −80° C. until use. The above Medium was changed every 3rd day. On day 7, the imDAPs at early maturation stage were dissociated enzymatically with 1× TrypLE, centrifuged at 250 g for 5 minutes.
imDAPs were produced according to the method described in CN201910169525.0, and expanded as described in Example 10. […] Medium was changed every 3rd day. On day 7, the imDAPs at early maturation stage were dissociated enzymatically with 1× TrypLE, centrifuged at 250 g for 5 minutes. Cells were collected for RT-qPCR analysis of EN1, LMX1A, FOXA2, NURR1, SOX6 and TH gene expression. The maturation medium used in Example 12 contained the following components: Neurobasal™ medium, 1% (v/v) Glutamax, 1% (v/v) HhPLT, 0.5 mM Db-cAMP sodium salt, 200 μM ascorbic acid, 20 ng/mL BDNF, 20 ng/mL GDNF, 1 ng/mL TGF-β3, 10 μM DAPT.
imDAPs were produced according to the method described in CN201910169525.0, and expanded as described in Example 10. […] Cells were collected and counted by Vi-cell cytometer. The cells were analyzed by RT-qPCR for EN1, LMX1A, FOXA2, NURR1, SOX6 and TH gene expression. […]

B1: VTN: vitronectin, first coating matrix that supports cell adhesion (protein, UniProt P04004 20-478, looked up)
Vitronectin: DQESCKGRCTEGFNVDKKCQCDELCSYYQSCCTDYTAECKPQVTRGDVFTMPEDEYTVYDDGEEKNNATVHEQVGGPSLTSDLQAQSKGNPEQTPVLKPEEEAPAPEVGASKPEGIDSRPETLHPGRPQPPAEEELCSGKPFDAFTDLKNGSLFAFRGQYCYELDEKAVRPGYPKLIRDVWGIEGPIDAAFTRINCQGKTYLFKGSQYWRFEDGVLDPDYPRNISDGFDGIPDNVDAALALPAHSYSGRERVYFFKGKQYWEYQFQHQPSQEECEGSSLSAVFEHFAMMQRDSWEDIFELLFWGRTSAGTRQPQFISRDWHGVPGQVDAAMAGRIYISGMAPRPSLAKKQRFRHRNRKGYRSQRGHSRGRNQNSRRPSRATWLSLFSSEESNLGANNYDDYRMDWLVPATCEPIQSVFFFSGDKYYRVNLRTRRVDTVDPPYPRSIAQYWLGCPAPGHL
B1 was tested, and the “cell adhesion and growth” value was “could grow normally”.
